Common to all, as to assay: cell-based or functional assay
Test [1] concerns the target DEN2 E protein of chimeric WN/DEN2 virus, C6-1 seed (Dengue virus type 2, strain 16681 (in a West Nile NY99 backbone)) (UniProt P29990).
Test [2] concerns the target DEN2 E protein of chimeric WN/DEN2 virus, C6-1/V-2 seed (E-N203D) (Dengue virus type 2, strain 16681 (in a West Nile NY99 backbone)) (UniProt P29990).
Test [3] addresses DEN2 E protein of chimeric WN/DEN2 virus, V-3 seed (E-N203D; NS2A-I49T and NS2A-F94L elsewhere in the virus) (Dengue virus type 2, strain 16681 (in a West Nile NY99 backbone)) (UniProt P29990).
The target in test [4] is DEN2 E protein of chimeric WN/DEN2 virus, V-10 seed (E-K122I/K mixed, E-S186F, E-N203D) (Dengue virus type 2, strain 16681 (in a West Nile NY99 backbone)) (UniProt P29990).
Test [5] addresses E protein of wild type West Nile virus NY99 (West Nile virus, strain NY99) (UniProt Q9Q6P4). The note with it: scale: greatest antibody dilution that decreased plaques by at least 50%.

Take “WNV E protein-specific monoclonal antibody (MAb3.67G)”: the PRNT50 Titer in test [1] is less than 1280; in test [2], less than 1280; in test [3], less than 1280; in test [4], less than 1280; in test [5], greater than 41000.

Regarding “DENV-2 E protein-specific monoclonal antibody (MAb3H5)”, the PRNT50 Titer is greater than 2560 in test [1]; greater than 2560 in test [2]; greater than 2560 in test [3]; greater than 2560 in test [4]; less than 80 in test [5].

The values are drawn from patent US20110150771A1.
